We go through 18 sequences from a protein production outcome set (Wang et al. 2014).

The nature of the data set: label from the status in PepcDB records.

Regarding “MFILSAQRLSGTQVFRRLAEGCTGYSVSSGCRQRRRCCPGAPQRPRRVRVNALQLQSGLADPLDPKSEAEVREHLRSNSPAERALGINYARYLDESTRYDILLEMMEDTDPQVRYAAVTQLATVGSHDRQRTLKAVRKILWNTEEDASVRAGAADVLGGLRFHEAFPDLEKLFHESKDWVVRFSIIAALGEMGVREAFPILVEALHANKEPLVQLAAIGALGELGDERARVYLEPLVNSSDASIVERARFALDALDARGSERT”, the protein production result is “not failed”.
In the case of “MFITLLLFFLSAAIIYFACEFFVNGVEWVGHRFKLGATATGTVLAAFGTALPESAVTFMAVVFGTTPEQKDIGVGAAMGGPLVLATLAYAVVGLTLARTRRAGSSQVEAAINADQRRLARDQAWFMGVFVFKVALGLLAFAWKPWLGLLFLAVYGLYVKRELTREEECLDCEDLEPLKLRPRDPSPSLFWACAQTVLALAVIALASHVFVRQIELLGLAMGASPHVAALLLAPVATELPEIMNALIWVRQGKERLALANISGAMMIQATIPSAMMIQATIPSALGIFLTPWLLDAPLLAAGGFTLAAILLLWLRFRRAAMSVPALSAVGGLYALFAGYLGWHFYA”, the protein production entry is “failed”.
As to “MFKDGSLIPYLTAGDPDKQSTLNFLLALDEYAGAIELGIPFSDPIADGKTIQESHYRALKNGFKLREAFWIVKEFRRHSSTPIVLMTYYNPIYRAGVRNFLAEAKASGVDGILVVDLPVFHAKEFTEIAREEGIKTVFLAAPNTPAERLKVIDDMTTGFVYLVSLYGTTGAREEIPKTAYDLLRRAKRICRNKVAVGFGVSKREHVVSLLKEGANGVVVGSALVKIIGEKGREATEFLKKKVEELLGI”, the protein production entry is on record as “not failed”.
Consider “MFKEVGEPNFPKLEEEVLAFWKREKIFQKSVENRKGGPRYTVYEGPPTANGLPHVGHAQARSYKDLFPRYKTMRGYYAPRRAGWDTHGLPVELEVEKKLGLKSKREIEAYGIERFNQACRESVFTYEKEWEAFTERIAYWVDLENAYATLEPTYIESIWWSLKNLFDRGLLYRDHKVVPYCPRCGTPLSSHEVALGYKEIQDPSVYVRFPLKEPKKLGLEKASLLIWTTTPWTLPGNVAAAVHPEYTYAAFQVGDEALILEEGLGRKLLGEGTPVLKTFPGKALEGLPYTPPYPQALEKGYFVVLADYVSQEDGTGIVHQAPAFGAEDLETARVYGLPLLKTVDEEGKLLVEPFKGLYFREANRAILRDLRGRGLLFKEESYLHSYPHCWRCSTPLMYYATESWFIKNTLFKDELIRKNQEIHWVPPHIKEGRYGEWLKNLVDWALSRNRYWGTPLPIWVCQACGKEEAIGSFQELKARATKPLPEPFDPHRPYVDQVELACACGGTMRRVPYVIDVWYDSGAMPFASLHYPFEHEEVFRESFPADFIAEGIDQTRGWFNFLHQLGVMLFGSIAFKNVICHGLILYEMGQKMSKSKGNVVDPWDIIREFGADALRWYIYVSAPPEADRRFGPNLVRETVRDYFLTLWNVYSFFVTYANLDRPDLKNPPPPEKRPEMDRWLLARMQDLIQRVTEALEAYDPTTSARALRDFVVEDLSQWYVRRNRRRFWKNEDALDREAAYATLYEALVLVATLAAPFTPFLAEVLWQNLVRSVRPEAKESVHLADWPEADPALADEALVAQMRAVLKVVDLARAARAKSGVKTRTPLPLLLVTAPTALEREGLKRFAHEIAEELNVKEVRVLEPGEEILSYRVLPNLKLLGRKYGKLVPKIREALQRERERAAALALKGEAIPLEVEGEALTLLPEEVLLEAEAPKGYQALEKDGYVAALKVEVTEALRMEGLARDLIRLLQQARKDMGLKVSDRIRVGYEAEGPYLEALKRHGPWIAEEVLATAFGEGLFGGFEARVEDEEGKAVFHLARAE”, for which the protein production entry is listed as “not failed”.
As for “MFKGTNNASDFTLMSFSDRQAKNHEPRLKARRRGCLIVLADRIIDALYHPAGPCQGADKARQSAIQHFRLDVPEGQCHRLRHLLDMRPAMTQTQPAPACSLPCSILLLAGGRGSRMGGQDKGLVAWRGQPLIAHVQAVVRPLSDDLIISCNRNAERYRAYADRLVEDGQKDFPGPLAGVLAGLATARHPWLLVLACDAPQIDAALIQALLDARGNDTRPVMVQQAGQWQPMFSLIPTALLGDLRQAWDNGERSLLRALAAHGLRPLPCAADDPRLSNFNTPELLSEAGPKPLA”, the protein production entry is “failed”.
Consider “MFKKHNFHFNWLPLILISTVSIMLIFNIRSILSEGIRPFLSVLTPFFWAFGIAYLINPLMMLIEKKFKLKRAFSLMISYILVIICVYILIAIIVPTIFDSLSELFSNLSEYASSAESWINNTLASMNVPLDLNHLNTSATEFISKTSTLLSNIVGSLLTQTIKITSSVVKFVFGFIISIYMLMDKETLIEGCKKIIIAVMPSEKSSELFISFMAEAHNIFSRFIIGKIIDSLIIGVLCYIGLLLMGTQYAVLISFIVGLTNMIPYFGPFIGMIPAFLLTLIVQPSMAIWVLLFIFILQQFDGWYLGPKILGDQVGVSPLFIIFAVTVGGGIFGVLGMFLSVPIIALIKIYTEKFIEYRLENKKQNFSE”, for which the protein production result is “failed”.
Then “MFKNKLAVLFTCLSVFSFSAQSGSFDTVTLGSKGGIQDGNLTAFLIKSEADSNFVMLDAGSVVNGLIVSEQKGAFKDITVPDSSPYTKVGYLLKDKIKGYFISHAHLDHVAGLIISSPDDSKKPIYGLAATNKDLMKNYFNWSAWPNFGNKGEGFKLNKYNYVDLQPGVWSPIAETTMSVMSLPLSHSGGQSTVFILKDSEGDVFAYFGDTGPDEVEKSSAMKTAWSALAPFVKQGKLKGIIIEVSFTNETPDKSLFGHLTPNWLVKELSVLEDMNGKGSLNDLNVAISHIKYSLKNSEDPKVIIKKQLAEANDLGVNFIFPEQGDSLQF”, with “failed”; and “MFKVLAEAFASARLRLGAILFSPQSLAFLPAFCLGLYWYGGETALMITALVFPVFFLVARAKLAETVTTSRQDSVLGVMQPDGFQDIVAARFREARAGGLISTVFQIEIDDHTSLVERHGQRAAEVISTTSADRIAAVLRDRDAVTHLDTFKYAVCLEPVRQMDLELCIQLAGRIQAALEEPIALDATAVCITSSVGFCQQTKVLSRSGEAWLAAAGHALREAHLNGPGAIRAYSEKMQQKSEIRAELREEVAQALEKGQIKPWFQPQISTDTGLVTGFEALARWNHPKRGMVPPGAFLTAIEQAGMLEKLAEVMIFHAFTALKAWDSAGVCVPQVGVNFAGPELSNPKLVDKIIWELDRFDLAPERLAVEVLETVVANSPDDTITRNINGLSKLGCRIDLDDFGTGHASISSIRRFSVSRIKIDRSFVIKADRDPEQQRMISAILTMAERLEVETLAEGVESVGEHALLAQLGCDHVQGFGIGKPMPFDQTLDWIASHNAKLQATPQILPNKLRLEHHHHHH”, with “not failed”.
In the case of “MFKVTFAFENGSEVEAFANAGDNLLEVARGANVAIDAPCSGNGACGKCRVQLKGGELDSKKTLHISDEEFEKGWRLACMSKICADVEVLVPDIASAYKSRMKVA”, the protein production result was “failed”.
With “MFLGAAMAQVSLCMIVRDEAELLPRCLASVKDQVDELIVLDTGSRDRTPAIATEAGAKLLHTDWADDFSAARNQAIAAATGDWILVLDADEELILEAWTELRSQLDQPEALAFTVLREETQAGQVPYSRLSRLFRNRPDIRFQRPYHELVDDSLLALQQQEPNWRITAWPTPVIRHYGYGRDRLQQRGTAERMRQSLETWLADHPEDAYLCSKLGGLLVQEGDLKAAQRWLKQGLKQGRPEPAVRYELLYHLALLERRQGDLDAAIDRYQAALQEPVDAIHKLGAWVNLSHLYRDRGQLGLAYDAARQAVAAAPQATVALTALGLAARAIGNYPEAIAAYQQALQLDPNDPSLYQNLGAVLFQVGQLEASYAAFRQAIAGYEQQGSPEAQRLELRLQAMGIRL”, the protein production result is given as “failed”.
With “MFLKLFSLFLIIPLVEIYLLIKIGGIIGAFNTVLVILITASLGAYLTKSQGFRVFHQIQDATRQGYMPGNELLHGLFVLIGGFALLTPGFLTDAIGFSMLIPQIREIYVGIAKGIIRKKIEQGNFQMRVYTDFR”, the protein production result is listed as “failed”.
For “MFLKRIELQREKVLSFQEYPFSIPAIKHFQRLELKSRVTFFVGENGSGKSTLLEAIADKCEFNTAGGGRNNYYEVDASESALGDYIRLSWLPKVSNGFFLRAESFYHFASHVDEVDARHAYGGRSLHHQSHGEAFLSLFANRFNRKGIYLLDEPEAALSPRRQLSFLAILHDLVSSGDSQFIIATHSPILLGYPHATILSFDHGTIEETTYEQTEHYQLTRYFLENRERMLRELLGELEHHHHHH”, the protein production result is “failed”.
Then “MFLLQQLDHTVKKMKSQLANFFTIINLSCGVFAILFTLQGELRVSLLFITIAAVFDRLDGAAARKFDCASDFGKQLDSLTDIISFGVAPALMIYHAILFDFGYAGALFTVFYIACGAIRLARFNITENHNSFIGLPITAAGCILTLLYLAVGYWPDYTFMFAILILSFLMVSTIRVRKM”, with “failed”.
Then “MFLRIANKILKRLAGVQVIPVNKKRLSVLDNKHLHIASNSILLEGTSLDFRQEISSSDTYVSIGGYCLIKAIFTFETTTGLITIGNNVHIGNAHFICRSAITIHDDVTMAWGITLYDHNSHSIHWEERKDDNKTCYEDFVQHHGNNIVNKNWINVLSRPIVIESKAWIGFNVTILKGVTIGEGAVIGACSVVTKDVPAWTVVAGNPAAVVKHLQKPE”, with “failed”.
Then “MFLVNNIRCSNMAEFPYTTVPGKIKPFFQKIQEAGLPSKVTQKWINSIGFTSSNDPSIIPLLKKLGFIDRSGVPTELWARYRDKDLAPKVMAEAIKNAYKELFETYPDAYRKDKEALRNFFASQTGKAENTIEKMIQTFKALCELADFESNSEEYPHNEVVPSREGLTTLMEKQTPKGLTINVNIQLQLPATTDEEVYDKLFRSLKRNLLSE”, with “not failed”; and “MFMFRNCAVLLVIGSICCFIYGLFRLHVEVEPNACRMTYMFGEPMFAKVGVRDGDQYPNYALYYYYEGLRQPLDPLKRRMTGAPVIFVPGNAGSYKQVRSLASVALRKAMSNDAGIHLDYYTIDYDEELSALYGGYLHRQQSYLKLCIRTILSIYEGRTEQPSIVLIGHSMGGKLAQSVLVDPAIGQHINTIISISTPLDQPVLNLDTQLEEFYDQTDAVLSKLRTATVPTMTTNVCDSLHQRPPSVQRMASQDSSARLDNVLLISTGGGNRDLLVRPGLTSSRFNDLHAMTSAIPKVSLSCDHLSAVWCLQFMQAINRFLFSVAYVREDRSSIAFGTNKQRNLQTALSTFVKPRRRQQNTVRFGAAGNWHEERRLVINKYFTNGLKGTFFDLIGLQRQERYRKAAIEALNVDDEDWLFGCSAEDNNKTGQLYCEKATSLMHLVQWLPNEDREPRSIALLDLHNLRKTYVHWTHLLVRLPPSAKRIGYNLDIYDPKERVTDIKMPRWYTMAKLPLINETLQGTLHHRVRISEMVDPYQSIRVIVEPLQCINPEYRVTARICVPWAAGFERFQTLKSFDQKPQLYVNVPTLVPRHYNTTLNPVTLELYLDPTCRYRISYEYSYSSALSRLVLEFYGWLPAHLVCVLLIVLRKQVETFYDVGTFRSLRPYVGYLQYTSLYIVTACRLLKKLIISSRVFPEPEPLDYSINVSIVIHCAAIALSLLATLGTWLALTLYGNAFYRLALRITRLSQATSNVMISIMTHLPITYGILTIATAMGTCSGVGLLLAFVFYFLMLSNAYKDYLEDFLWQKAANLVRGKPSAVTEQEDATEEQNEEQNALKQNDEQKQQQQEEEEPEACVGLQNFSFHVTLLLMLFVQLLLNAPSSLAWLRSRRHGINLPDPSLYPSIVVLASLSLLLQLRAPQKCQGYWMLSIAFYILAGVVLLYCQAAIYRLTYVIAGAFALLSAHQSLWILWGRVSRV”, with “failed”.
Turning to “MFMGKLPHQADLIGALIEAAGANGIRAGAIQVIGALQGAKLGFYDQWSKSYRELPFAKPLEIVSGLGNISLRDGRPFVHLHLSISDEEGKVFGGHALEGCTIFAAEYAIMPLPGSAPVRVFDETTGLFLWEREQYPASGQKGLSPELERALLNPLEHHHHHH”, the protein production result was “not failed”.
Regarding “MFMIPAWLWIGLIAFALAFVCNRLSPRDLRWFNRLRRPSWLTFEWAIPFIWIAIFIAGAISATLAWNATADPGHRWGLMVGYLLLELTVMAYTPVMCKLRSLRVGSIIGATGFFVGLALVIAVSQVSTTAFGFLVPFLLWSPIGTYVTWAMIPLNPGEI”, the protein production entry is “failed”.
